Experiments:
Test in all cases: cell-based or functional assay
[1] = target: HIV-1 Env of pseudovirus 0815.v3.c3 (HIV-1)
[2] = target: HIV-1 Env of pseudovirus 1394C9G1(Rev-) (HIV-1)
[3] = target: HIV-1 Env of pseudovirus 191084 B7-19 (HIV-1)
[4] = target: HIV-1 Env of pseudovirus 231965.c01 (HIV-1)
[5] = target: HIV-1 Env of pseudovirus 246F C1G (HIV-1)
[6] = target: HIV-1 Env of pseudovirus 3016.v5.c45 (HIV-1)
[7] = target: HIV-1 Env of pseudovirus 3365.v2.c2 (HIV-1)
[8] = target: HIV-1 Env of pseudovirus 3817.v2.c59 (HIV-1)
[9] = target: HIV-1 Env of pseudovirus 6480.v4.c25 (HIV-1)
[10] = target: HIV-1 Env of pseudovirus 6811.v7.c18 (HIV-1)
[11] = target: HIV-1 Env of pseudovirus 6952.v1.c20 (HIV-1)
[12] = target: HIV-1 Env of pseudovirus 7030102001E5(Rev-) (HIV-1)
[13] = target: HIV-1 Env of pseudovirus 89-F1_2_25 (HIV-1)
[14] = target: HIV-1 Env of pseudovirus AC10.0.29 (HIV-1)
[15] = target: HIV-1 Env of pseudovirus BF1266.431a (HIV-1)
[16] = target: HIV-1 Env of pseudovirus BJOX010000.06.2 (HIV-1)
[17] = target: HIV-1 Env of pseudovirus BJOX015000.11.5 (HIV-1)
[18] = target: HIV-1 Env of pseudovirus BJOX025000.01.1 (HIV-1)
[19] = target: HIV-1 Env of pseudovirus CAAN5342.A2 (HIV-1)
[20] = target: HIV-1 Env of pseudovirus Ce703010054_2A2 (HIV-1)
[21] = target: HIV-1 Env of pseudovirus Du172.17 (HIV-1)
[22] = target: HIV-1 Env of pseudovirus Du422.1 (HIV-1)
[23] = target: HIV-1 Env of pseudovirus HIV-16055-2.3 (HIV-1)
[24] = target: HIV-1 Env of pseudovirus P0402_c2_11 (HIV-1)
[25] = target: HIV-1 Env of pseudovirus Q23.17 (HIV-1)
[26] = target: HIV-1 Env of pseudovirus R3265.c06 (HIV-1)
[27] = target: HIV-1 Env of pseudovirus REJO4541.67 (HIV-1)
[28] = target: HIV-1 Env of pseudovirus SC422661.8 (HIV-1)
[29] = target: HIV-1 Env of pseudovirus T250-4 (HIV-1)
[30] = target: HIV-1 Env of pseudovirus T278-50 (HIV-1)
[31] = target: HIV-1 Env of pseudovirus THRO4156.18 (HIV-1)
[32] = target: HIV-1 Env of pseudovirus WITO4160.33 (HIV-1)
[33] = target: HIV-1 Env of pseudovirus X1193_c1 (HIV-1)
[34] = target: HIV-1 Env of pseudovirus X1254_c3 (HIV-1)
[35] = target: HIV-1 Env of pseudovirus ZM197M.PB7 (HIV-1)
[36] = target: HIV-1 Env of pseudovirus ZM53M.PB12 (HIV-1)

Work on 3BNC117 (antibody) yielded an IC50, titer in TZM.bl cells [1] of 0.01 µg/mL, an IC80, titer in TZM.bl cells [1] of 0.02 µg/mL and a neutralization IC50 [2] of over 50 µg/mL. The neutralization IC80 [2] was over 50 µg/mL, the neutralization IC50 [3] was 0.07 µg/mL and the neutralization IC80 [3] was 0.23 µg/mL. For the same substance, the IC50, titer in TZM.bl cells [4] was 0.05 µg/mL, the IC80, titer in TZM.bl cells [4] was 0.22 µg/mL and the neutralization IC50 [5] was 19.3 µg/mL. The neutralization IC80 [5] was over 50 µg/mL, the IC50, titer in TZM.bl cells [6] was 1.38 µg/mL and the IC80, titer in TZM.bl cells [6] was over 30 µg/mL. The neutralization IC50 [7] was 0.03 µg/mL, the neutralization IC80 [7] was 0.1 µg/mL and the IC50, titer in TZM.bl cells [8] was 0.15 µg/mL. The IC80, titer in TZM.bl cells [8] was 0.52 µg/mL, the IC50, titer in TZM.bl cells [9] was 0.01 µg/mL and the IC80, titer in TZM.bl cells [9] was 0.04 µg/mL. The IC50, titer in TZM.bl cells [10] was 0.03 µg/mL, the IC80, titer in TZM.bl cells [10] was 0.17 µg/mL and the IC50, titer in TZM.bl cells [11] was 0.15 µg/mL. For the same substance, the IC80, titer in TZM.bl cells [11] was 0.75 µg/mL, the neutralization IC50 [12] was 0.29 µg/mL and the neutralization IC80 [12] was 1.44 µg/mL. It also gave an IC50, titer in TZM.bl cells [13] of over 50 µg/mL, an IC80, titer in TZM.bl cells [13] of over 50 µg/mL and a neutralization IC50 [14] of 13.8 µg/mL. For the same substance, the neutralization IC80 [14] was over 50 µg/mL, the neutralization IC50 [15] was 0.03 µg/mL and the neutralization IC80 [15] was 0.09 µg/mL. The IC50, titer in TZM.bl cells [16] was 1.58 µg/mL, the IC80, titer in TZM.bl cells [16] was 10.4 µg/mL and the IC50, titer in TZM.bl cells [17] was 0.05 µg/mL. The IC80, titer in TZM.bl cells [17] was 0.32 µg/mL, the IC50, titer in TZM.bl cells [18] was 0.05 µg/mL and the IC80, titer in TZM.bl cells [18] was 0.2 µg/mL. For the same substance, the neutralization IC50 [19] was 0.42 µg/mL, the neutralization IC80 [19] was 1.51 µg/mL and the neutralization IC50 [20] was 0.37 µg/mL. For the same substance, the neutralization IC80 [20] was 1.67 µg/mL, the neutralization IC50 [21] was 1.19 µg/mL and the neutralization IC80 [21] was 8.9 µg/mL. It also gave a neutralization IC50 [22] of over 50 µg/mL, a neutralization IC80 [22] of over 50 µg/mL and a neutralization IC50 [23] of 5.6 µg/mL. The neutralization IC80 [23] was over 50 µg/mL, the IC50, titer in TZM.bl cells [24] was 0.06 µg/mL and the IC80, titer in TZM.bl cells [24] was 0.38 µg/mL. For the same substance, the neutralization IC50 [25] was 0.005 µg/mL, the neutralization IC80 [25] was 0.02 µg/mL and the IC50, titer in TZM.bl cells [26] was 0.48 µg/mL. It also gave an IC80, titer in TZM.bl cells [26] of 13 µg/mL, a neutralization IC50 [27] of 0.01 µg/mL and a neutralization IC80 [27] of 0.05 µg/mL. For the same substance, the neutralization IC50 [28] was 0.02 µg/mL, the neutralization IC80 [28] was 0.08 µg/mL and the IC50, titer in TZM.bl cells [29] was over 15 µg/mL. It also gave an IC80, titer in TZM.bl cells [29] of over 15 µg/mL, an IC50, titer in TZM.bl cells [30] of over 15 µg/mL and an IC80, titer in TZM.bl cells [30] of over 15 µg/mL. For the same substance, the neutralization IC50 [31] was 1.76 µg/mL, the neutralization IC80 [31] was 10.1 µg/mL and the neutralization IC50 [32] was 0.01 µg/mL. The neutralization IC80 [32] was 0.04 µg/mL, the IC50, titer in TZM.bl cells [33] was 0.06 µg/mL and the IC80, titer in TZM.bl cells [33] was 0.25 µg/mL. The IC50, titer in TZM.bl cells [34] was 0.08 µg/mL, the IC80, titer in TZM.bl cells [34] was 0.27 µg/mL and the neutralization IC50 [35] was 0.22 µg/mL. It also gave a neutralization IC80 [35] of 1.03 µg/mL, a neutralization IC50 [36] of 0.21 µg/mL and a neutralization IC80 [36] of 0.85 µg/mL.
